One assay concerns the target T1, PACAP38 (human, K at residue 38 modified by C-terminal amidation).
T1 peptide: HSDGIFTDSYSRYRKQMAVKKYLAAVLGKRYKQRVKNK
Put plainly: cell-based or functional assay.

The target in another assay is T2, PACAP27 (human, L at residue 27 modified by C-terminal amidation).
T2 peptide: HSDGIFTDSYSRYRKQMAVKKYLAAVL
Put plainly: cell-based or functional assay.

Turning to IgG4 mAb (negative control) (antibody), in the assay with PACAP38, the Percentage tryptase release in human mast cells upon addition of 1 uM PACAP38; negative control antibody, single point was determined as 104%; the Percentage tryptase release upon addition of PACAP38; negative control antibody dose 153 uM was 79.6%; the Plasma cAMP levels in CD-1 mice after iv PACAP38 (13 nmols/kg); control antibody 10 mg/kg sc was found to be 4.09 µM. In the assay with PACAP27, this substance displayed a Percentage tryptase release in human mast cells upon addition of 1 uM PACAP27; negative control antibody, single point of 110% and a Percentage tryptase release upon addition of PACAP27; negative control antibody dose 153 uM of 94.8%.

The values are drawn from patent publication US20210171616A1 (Eli Lilly, published 2021).
